Test results as given in patent EP4620474A1.

Target: human receptor for C5a (human) (UniProt P21730)
Test: cell-based or functional assay

Sequence of UniProt P21730 (P21730 whole entry): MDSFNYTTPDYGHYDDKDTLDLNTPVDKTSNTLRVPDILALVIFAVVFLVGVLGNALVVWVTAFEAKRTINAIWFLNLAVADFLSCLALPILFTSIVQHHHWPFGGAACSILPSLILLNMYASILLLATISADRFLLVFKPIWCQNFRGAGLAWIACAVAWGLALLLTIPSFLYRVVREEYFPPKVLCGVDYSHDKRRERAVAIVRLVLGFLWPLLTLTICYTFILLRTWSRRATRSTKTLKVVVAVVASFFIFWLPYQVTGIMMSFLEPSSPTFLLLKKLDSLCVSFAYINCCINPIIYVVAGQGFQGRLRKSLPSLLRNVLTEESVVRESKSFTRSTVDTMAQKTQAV

Row | Substance | half effective concentrations (EC50), chemotaxis (migration) of BA/F3/huC5aR cells [nM]
1 | mouse C5a (from UniProt P06684 679-755) (ligand) | 0.3
2 | recombinant human C5a (from UniProt P01031 678-751) (ligand) | 0.1
